# Experimental data reported in EP4745153A1, “GLP-1, GIP AND GCG RECEPTOR […] USE THEREOF” (Jiangsu Hengrui Pharmaceuticals Co., Ltd., priority 2023, dated 2025).
# Where two headings read alike, the source gives them in different places. Starred links: 1 amine or outer side, 2 acyl side, 3 side chain; linkers in the order of their positions; H or OH if unused. Non-standard residues stand in square brackets, D forms with d. Groups on a side chain read outwards from the residue. No end group written: not given here. *: point of attachment. C20 diacid = O=C(O)CCCCCCCCCCCCCCCCCCC(=O)*; γGlu = O=C(O)[C@H](CCC(=O)[*:2])N[*:1]; αMeL = CC(C)C[C@](C)(N)C(=O)O; αMeK = C[C@](N)(CCCCN)C(=O)O; Iva = CC[C@](C)(N)C(=O)O; AEEA = NCCOCCOCC(=O)O; Aib = CC(C)(N)C(=O)O
# T1: human glucose-dependent insulinotropic polypeptide receptor (human, UniProt P48546 22-466)
# T1 sequence (looked up): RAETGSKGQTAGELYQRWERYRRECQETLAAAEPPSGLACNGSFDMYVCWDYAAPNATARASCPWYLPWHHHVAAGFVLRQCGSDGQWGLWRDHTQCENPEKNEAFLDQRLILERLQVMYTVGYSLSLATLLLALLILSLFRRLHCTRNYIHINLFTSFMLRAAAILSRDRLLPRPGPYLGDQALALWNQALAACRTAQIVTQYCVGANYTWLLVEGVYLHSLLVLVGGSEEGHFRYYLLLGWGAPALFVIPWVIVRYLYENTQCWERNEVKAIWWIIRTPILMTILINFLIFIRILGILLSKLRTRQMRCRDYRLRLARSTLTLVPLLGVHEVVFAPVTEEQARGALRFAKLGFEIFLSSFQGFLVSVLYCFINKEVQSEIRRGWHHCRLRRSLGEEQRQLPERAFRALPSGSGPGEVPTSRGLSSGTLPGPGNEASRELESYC
# B1: Compound No. 0142 (peptide)
# peptide: H[Aib]HGTFTSDLSI[αMeL]LEK([AEEA-AEEA-γGlu-C20 diacid])KAAQEFVEWLLA[dE]GPSSGAPPPS-NH2
# modifications: N-terminus assumed
# SMILES: CC[C@H](C)[C@H](NC(=O)[C@H](CO)NC(=O)[C@H](CC(C)C)NC(=O)[C@H](CC(=O)O)NC(=O)[C@H](CO)NC(=O)[C@@H](NC(=O)[C@H](Cc1ccccc1)NC(=O)[C@@H](NC(=O)CNC(=O)[C@H](Cc1c[nH]cn1)NC(=O)C(C)(C)NC(=O)[C@@H](N)Cc1c[nH]cn1)[C@@H](C)O)[C@@H](C)O)C(=O)N[C@@](C)(CC(C)C)C(=O)N[C@@H](CC(C)C)C(=O)N[C@@H](CCC(=O)O)C(=O)N[C@@H](CCCCNC(=O)COCCOCCNC(=O)COCCOCCNC(=O)CC[C@H](NC(=O)CCCCCCCCCCCCCCCCCCC(=O)O)C(=O)O)C(=O)N[C@@H](CCCCN)C(=O)N[C@@H](C)C(=O)N[C@@H](C)C(=O)N[C@@H](CCC(N)=O)C(=O)N[C@@H](CCC(=O)O)C(=O)N[C@@H](Cc1ccccc1)C(=O)N[C@H](C(=O)N[C@@H](CCC(=O)O)C(=O)N[C@@H](Cc1c[nH]c2ccccc12)C(=O)N[C@@H](CC(C)C)C(=O)N[C@@H](CC(C)C)C(=O)N[C@@H](C)C(=O)N[C@H](CCC(=O)O)C(=O)NCC(=O)N1CCC[C@H]1C(=O)N[C@@H](CO)C(=O)N[C@@H](CO)C(=O)NCC(=O)N[C@@H](C)C(=O)N1CCC[C@H]1C(=O)N1CCC[C@H]1C(=O)N1CCC[C@H]1C(=O)N[C@@H](CO)C(N)=O)C(C)C
# B2: Compound No. 0144 (peptide)
# peptide: H[Aib]HGTFTSDLSILLEK([AEEA-AEEA-γGlu-C20 diacid])KAAQEFVEWLLA[dE]GPSSGAPPPS-NH2
# B3: Compound No. 0131 (peptide)
# peptide: H[Aib]HGTFTSDYS[αMeK]LLEK([AEEA-AEEA-γGlu-C20 diacid])KAA[Iva]EFVEWLIEGGPSSGAPPPS-NH2
# modifications: N-terminus assumed
# SMILES: CC[C@H](C)[C@H](NC(=O)[C@H](CC(C)C)NC(=O)[C@H](Cc1c[nH]c2ccccc12)NC(=O)[C@H](CCC(=O)O)NC(=O)[C@@H](NC(=O)[C@H](Cc1ccccc1)NC(=O)[C@H](CCC(=O)O)NC(=O)[C@](C)(CC)NC(=O)[C@H](C)NC(=O)[C@H](C)NC(=O)[C@H](CCCCN)NC(=O)[C@H](CCCCNC(=O)COCCOCCNC(=O)COCCOCCNC(=O)CC[C@H](NC(=O)CCCCCCCCCCCCCCCCCCC(=O)O)C(=O)O)NC(=O)[C@H](CCC(=O)O)NC(=O)[C@H](CC(C)C)NC(=O)[C@H](CC(C)C)NC(=O)[C@](C)(CCCCN)NC(=O)[C@H](CO)NC(=O)[C@H](Cc1ccc(O)cc1)NC(=O)[C@H](CC(=O)O)NC(=O)[C@H](CO)NC(=O)[C@@H](NC(=O)[C@H](Cc1ccccc1)NC(=O)[C@@H](NC(=O)CNC(=O)[C@H](Cc1c[nH]cn1)NC(=O)C(C)(C)NC(=O)[C@@H](N)Cc1c[nH]cn1)[C@@H](C)O)[C@@H](C)O)C(C)C)C(=O)N[C@@H](CCC(=O)O)C(=O)NCC(=O)NCC(=O)N1CCC[C@H]1C(=O)N[C@@H](CO)C(=O)N[C@@H](CO)C(=O)NCC(=O)N[C@@H](C)C(=O)N1CCC[C@H]1C(=O)N1CCC[C@H]1C(=O)N1CCC[C@H]1C(=O)N[C@@H](CO)C(N)=O
# B4: Compound No. 0139 (peptide)
# peptide: H[Aib]HGTFTSDYSI[αMeL]LEK([AEEA-AEEA-γGlu-C20 diacid])KAAQEFVEWLLA[dE]GPSSGAPPPS-NH2
# modifications: N-terminus assumed
# SMILES: CC[C@H](C)[C@H](NC(=O)[C@H](CO)NC(=O)[C@H](Cc1ccc(O)cc1)NC(=O)[C@H](CC(=O)O)NC(=O)[C@H](CO)NC(=O)[C@@H](NC(=O)[C@H](Cc1ccccc1)NC(=O)[C@@H](NC(=O)CNC(=O)[C@H](Cc1c[nH]cn1)NC(=O)C(C)(C)NC(=O)[C@@H](N)Cc1c[nH]cn1)[C@@H](C)O)[C@@H](C)O)C(=O)N[C@@](C)(CC(C)C)C(=O)N[C@@H](CC(C)C)C(=O)N[C@@H](CCC(=O)O)C(=O)N[C@@H](CCCCNC(=O)COCCOCCNC(=O)COCCOCCNC(=O)CC[C@H](NC(=O)CCCCCCCCCCCCCCCCCCC(=O)O)C(=O)O)C(=O)N[C@@H](CCCCN)C(=O)N[C@@H](C)C(=O)N[C@@H](C)C(=O)N[C@@H](CCC(N)=O)C(=O)N[C@@H](CCC(=O)O)C(=O)N[C@@H](Cc1ccccc1)C(=O)N[C@H](C(=O)N[C@@H](CCC(=O)O)C(=O)N[C@@H](Cc1c[nH]c2ccccc12)C(=O)N[C@@H](CC(C)C)C(=O)N[C@@H](CC(C)C)C(=O)N[C@@H](C)C(=O)N[C@H](CCC(=O)O)C(=O)NCC(=O)N1CCC[C@H]1C(=O)N[C@@H](CO)C(=O)N[C@@H](CO)C(=O)NCC(=O)N[C@@H](C)C(=O)N1CCC[C@H]1C(=O)N1CCC[C@H]1C(=O)N1CCC[C@H]1C(=O)N[C@@H](CO)C(N)=O)C(C)C
# B5: Compound No. 0132 (peptide)
# peptide: H[Aib]HGTFTSDYS[αMeK]ILEK([AEEA-AEEA-γGlu-C20 diacid])KAA[Iva]EFVEWLIEGGPSSGAPPPS-NH2
# modifications: N-terminus assumed
# SMILES: CC[C@H](C)[C@H](NC(=O)[C@H](CC(C)C)NC(=O)[C@H](Cc1c[nH]c2ccccc12)NC(=O)[C@H](CCC(=O)O)NC(=O)[C@@H](NC(=O)[C@H](Cc1ccccc1)NC(=O)[C@H](CCC(=O)O)NC(=O)[C@](C)(CC)NC(=O)[C@H](C)NC(=O)[C@H](C)NC(=O)[C@H](CCCCN)NC(=O)[C@H](CCCCNC(=O)COCCOCCNC(=O)COCCOCCNC(=O)CC[C@H](NC(=O)CCCCCCCCCCCCCCCCCCC(=O)O)C(=O)O)NC(=O)[C@H](CCC(=O)O)NC(=O)[C@H](CC(C)C)NC(=O)[C@@H](NC(=O)[C@](C)(CCCCN)NC(=O)[C@H](CO)NC(=O)[C@H](Cc1ccc(O)cc1)NC(=O)[C@H](CC(=O)O)NC(=O)[C@H](CO)NC(=O)[C@@H](NC(=O)[C@H](Cc1ccccc1)NC(=O)[C@@H](NC(=O)CNC(=O)[C@H](Cc1c[nH]cn1)NC(=O)C(C)(C)NC(=O)[C@@H](N)Cc1c[nH]cn1)[C@@H](C)O)[C@@H](C)O)[C@@H](C)CC)C(C)C)C(=O)N[C@@H](CCC(=O)O)C(=O)NCC(=O)NCC(=O)N1CCC[C@H]1C(=O)N[C@@H](CO)C(=O)N[C@@H](CO)C(=O)NCC(=O)N[C@@H](C)C(=O)N1CCC[C@H]1C(=O)N1CCC[C@H]1C(=O)N1CCC[C@H]1C(=O)N[C@@H](CO)C(N)=O
# B6: Compound No. 0143 (peptide)
# peptide: H[Aib]HGTFTSDLSI[αMeL]LEK([AEEA-AEEA-γGlu-C20 diacid])KAAQEFVEWLLAGGPSSGAPPPS-NH2
# modifications: N-terminus assumed
# SMILES: CC[C@H](C)[C@H](NC(=O)[C@H](CO)NC(=O)[C@H](CC(C)C)NC(=O)[C@H](CC(=O)O)NC(=O)[C@H](CO)NC(=O)[C@@H](NC(=O)[C@H](Cc1ccccc1)NC(=O)[C@@H](NC(=O)CNC(=O)[C@H](Cc1c[nH]cn1)NC(=O)C(C)(C)NC(=O)[C@@H](N)Cc1c[nH]cn1)[C@@H](C)O)[C@@H](C)O)C(=O)N[C@@](C)(CC(C)C)C(=O)N[C@@H](CC(C)C)C(=O)N[C@@H](CCC(=O)O)C(=O)N[C@@H](CCCCNC(=O)COCCOCCNC(=O)COCCOCCNC(=O)CC[C@H](NC(=O)CCCCCCCCCCCCCCCCCCC(=O)O)C(=O)O)C(=O)N[C@@H](CCCCN)C(=O)N[C@@H](C)C(=O)N[C@@H](C)C(=O)N[C@@H](CCC(N)=O)C(=O)N[C@@H](CCC(=O)O)C(=O)N[C@@H](Cc1ccccc1)C(=O)N[C@H](C(=O)N[C@@H](CCC(=O)O)C(=O)N[C@@H](Cc1c[nH]c2ccccc12)C(=O)N[C@@H](CC(C)C)C(=O)N[C@@H](CC(C)C)C(=O)N[C@@H](C)C(=O)NCC(=O)NCC(=O)N1CCC[C@H]1C(=O)N[C@@H](CO)C(=O)N[C@@H](CO)C(=O)NCC(=O)N[C@@H](C)C(=O)N1CCC[C@H]1C(=O)N1CCC[C@H]1C(=O)N1CCC[C@H]1C(=O)N[C@@H](CO)C(N)=O)C(C)C
# Columns and labels:
# Test in all cases: cell-based or functional assay
# [1] = molecular target: T2, human glucagon-like peptide-1 receptor (human, UniProt P43220 24-463)
# [2] = molecular target: T1, human glucose-dependent insulinotropic …
# human glucagon receptor [3] = molecular target: T3, human glucagon receptor (human, UniProt P47871 26-477)
# [4] = molecular target: T2, human glucagon-like peptide-1 receptor; remark: listed apart in the source
# [5] = molecular target: T1, human glucose-dependent insulinotropic …; remark: listed apart in the source
# human glucagon receptor [6] = molecular target: T3, human glucagon receptor; remark: listed apart in the source
# T3 sequence (P47871 26-477): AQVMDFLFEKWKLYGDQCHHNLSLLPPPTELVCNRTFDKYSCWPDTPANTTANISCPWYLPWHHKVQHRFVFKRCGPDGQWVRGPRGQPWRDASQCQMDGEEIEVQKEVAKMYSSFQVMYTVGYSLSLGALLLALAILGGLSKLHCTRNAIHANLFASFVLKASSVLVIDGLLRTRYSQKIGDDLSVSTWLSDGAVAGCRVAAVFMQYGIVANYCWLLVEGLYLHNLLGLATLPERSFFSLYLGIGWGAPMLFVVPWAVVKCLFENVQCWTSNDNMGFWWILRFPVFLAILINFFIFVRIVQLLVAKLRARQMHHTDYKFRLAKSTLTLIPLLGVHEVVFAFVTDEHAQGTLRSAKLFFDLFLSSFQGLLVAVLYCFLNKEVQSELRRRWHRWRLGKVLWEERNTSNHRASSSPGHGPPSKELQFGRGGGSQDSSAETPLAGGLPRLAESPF
Binder,Activity against human GLP-1R (EC50 nM) [1],Activity against human GIPR (EC50 nM) [2],Activity against human GCGR (EC50 nM) (human glucagon receptor [3]),Activity against human GLP-1R (EC50 nM) [4],Activity against human GIPR (EC50 nM) [5],Activity against human GCGR (EC50 nM) (human glucagon receptor [6])
B1,0.058 nM,0.007 nM,0.49 nM,–,–,–
B2,0.035 nM,0.012 nM,0.311 nM,–,–,–
B3,–,–,–,0.02 nM,0.0007 nM,0.026 nM
B4,0.043 nM,0.007 nM,0.43 nM,–,–,–
B5,–,–,–,0.024 nM,0.001 nM,0.03 nM
B6,0.09 nM,0.004 nM,0.423 nM,–,–,–
